Experimental data as given in patent US20110268755A1 (HEALTH RESEARCH, published 2011).

How the values were obtained:
H2-K^b = target: T1, H2-K^b (mouse, UniProt P01887 21-119; P01901 22-369, limits assumed); assay: H2-K^b upregulation on RMA-S cells, 100 µM peptide, 37° C.
T1 construct: whole, on cells; also called murine MHC class I
T1 sequence (MHC heavy, looked up): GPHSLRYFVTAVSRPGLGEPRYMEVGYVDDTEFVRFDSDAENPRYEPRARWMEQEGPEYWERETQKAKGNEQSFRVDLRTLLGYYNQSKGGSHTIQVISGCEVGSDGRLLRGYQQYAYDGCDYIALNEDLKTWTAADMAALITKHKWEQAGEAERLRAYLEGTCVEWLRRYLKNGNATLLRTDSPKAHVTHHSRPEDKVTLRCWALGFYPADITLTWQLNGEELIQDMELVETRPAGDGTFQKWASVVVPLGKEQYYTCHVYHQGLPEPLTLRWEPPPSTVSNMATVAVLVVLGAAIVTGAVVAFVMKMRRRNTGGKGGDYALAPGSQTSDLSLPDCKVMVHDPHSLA
T1 sequence (b2m, looked up): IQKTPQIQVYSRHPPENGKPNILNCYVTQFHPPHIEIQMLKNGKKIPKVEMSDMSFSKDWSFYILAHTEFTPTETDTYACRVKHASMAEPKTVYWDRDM
Experimental: To obtain the data presented in FIG. 3, survivin peptide epitopes were used in conventional MHC class I peptide binding assays. Mean fluorescence in FIG. 3 represents binding of SVN peptides to H2-K^b. Upregulation of H2-K^b molecules on the surface of murine RMA-S cells which are deficient in the expression of surface MHC class I molecules was used to determine actual survivin peptide binding in vitro. Data presented in FIG. 3 represent the binding of 100 μM peptide at 37° C.

HLA-A*0201 [1] = target: T2, HLA-A*0201 (human); assay: competitive peptide binding assay, displacement of fluorescently labeled HPV18-27 from HLA-A*0201
T2 construct: also called human MHC class I; MHC I
Description: To obtain the data summarized in FIGS. 4A and 4B, survivin peptide epitopes were used in MHC class I peptide competitive displacement assays. […] Positive control peptides (Flu & gp100) represent known immunogenic MHC class I ligands. Data represent mean fluorescence±S.E.M. of triplicate samples.

HLA-A*0201 [2] = target: T2, HLA-A*0201; assay: survivin/MHC Class I-specific HLA-A*0201 pentamer binding

Question: Does CFFCFKEL (also called SVN 57-64 wt) [SVN-57-64] bind (H2-K^b)?
Answer: Result: binds

Question: Does MFFCFKEL [SVN-57-64/M57] bind (H2-K^b)?
Answer: Result: binds

Question: Does TLGEFLKL [SVN97-104] bind (H2-K^b)?
Answer: Result: binds

Question: Does DLAQCFFCFKELEGW [wild type SVN53-67] bind (HLA-A*0201 [1])?
Answer: Result: binds

B1: SVN53-67/M57 (peptide)
peptide: DLAQMFFCFKELEGW
notes: also called Survivin M57; Survivin-53-67/57M
Question: Which “fold stronger binding than wild type SVN53-67” value (HLA-A*0201 [1]) does the source give for B1 here?
Answer: Its value is ~12 fold.

Question: Does QCFFCFKEL [wild type SVN56-64] bind (HLA-A*0201 [2])?
Answer: Result: binds

Question: Which “fold stronger binding than wild type SVN56-64” value (HLA-A*0201 [2]) does the source give for QMFFCFKEL (also called core peptide SVN56-64/M57) [SVN56-64/M57] here?
Answer: Its value is ~73 fold.
